Measured values: article PMC9154745

Biological target: human cannabinoid receptor type 2 (CB2) (human) (UniProt P34972)
UniProt P34972, sequence (P34972 whole entry): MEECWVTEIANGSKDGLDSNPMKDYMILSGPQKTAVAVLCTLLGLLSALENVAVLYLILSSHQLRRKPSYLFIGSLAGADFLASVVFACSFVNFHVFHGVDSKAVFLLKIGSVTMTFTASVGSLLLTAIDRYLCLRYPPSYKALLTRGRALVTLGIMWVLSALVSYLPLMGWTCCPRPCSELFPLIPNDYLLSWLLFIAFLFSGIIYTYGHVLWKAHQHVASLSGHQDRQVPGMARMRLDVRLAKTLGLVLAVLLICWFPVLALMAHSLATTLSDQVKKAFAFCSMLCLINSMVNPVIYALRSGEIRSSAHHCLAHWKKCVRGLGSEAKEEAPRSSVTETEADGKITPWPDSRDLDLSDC

osteogenic growth peptide (OGP), the 5-amino-acid cellular activator derived from OGP(1-14) (from UniProt P62805 99-103)
logEC50 of half-maximal inhibition of FSK-stimulated cAMP in CHO-hCB2 cells (bell-shaped dose-response curve, two independent experiments): -12.1
